Columns and labels:
[1] = Intraocular permeation experiment after eye-dropping administration; type: in vivo; settings: mouse, 4 h, laser confocal imaging of eyeball sections
Protocol: 6.6 mg of BSA ([…]) was dissolved in 1 mL of PBS at pH 7.4, 66 μg of a fluorescent dye Cy5-NHS was added, and stirring was conducted for 6 h at room temperature. Ultrafiltration-washing was repeated multiple times to produce fluorescently-labeled ^Cy5BSA. The conjugate ^Cy5BSA-OPDMA and other protein conjugates were labeled by the same method.
Upper and lower eyelids of each mouse were gently pulled open with a cotton swab. Solutions of ^Cy5BSA and ^Cy5BSA-OPDMA in PBS each were dropped to a conjunctival sac of a mouse, and a few seconds later, eyelids were slowly closed. At 4 h after the eye-dropping administration, eyeballs were immediately collected, washed three times with PBS, fixed overnight in an FAS eyeball fixative solution, and then transferred to a 30% sucrose solution for dehydration. When sank to a bottom of the solution, eyeballs were carefully taken out, embedded with an optimal cutting temperature (OCT) embedding medium, and sectioned by a freezing microtome to produce 10 μm-thick eyeball sections. The eyeball sections were stained with a 4′,6-diamidino-2-phenylindole (DAPI) dye, and finally the fluorescence distributions of each solution in eyeballs and retinas were observed under a laser scanning confocal microscope. The fluorescence distribution inside a retina of a mouse eyeball was analyzed with Image J.

[2] = tested on: CT26 tumor spheres; assay: Permeation in multicellular tumor spheres; type: cell-based; settings: BSA 20 μg/mL, 2 h incubation
Protocol: The permeability of albumin and a conjugate BSA-OPDMA thereof was verified with multicellular tumor spheres. 1.0 mL of DMEM and the prepared CT26 tumor spheres were added to a confocal imaging dish, and then 20 μL of ^Cy5BSA-OPDMA or ^Cy5BSA was added (where a concentration of BSA was 20 μg/mL). After being incubated for 2 h, tumor spheres were subjected to laser scanning confocal microscopy imaging every 20 μm along a Z-axis. […] Moreover, the more the OPDMA bonded, the stronger the promotion on the permeability of BSA. […] OPDMA with a molecular weight of 10 k could more efficiently promote the penetration of ^Cy5BSA than OPDMA with a molecular weight of 5 k. This conclusion was further confirmed by the quantitative fluorescence data in FIG. 13.

[3] = Skin permeation experiment; type: in vivo, C57BL/6 mice; settings: mouse dorsal skin, 4 h after administration, laser confocal
Protocol: C57BL/6 mice each with a body weight of 20 g were selected and randomly divided into four groups. The hair on the back of each mouse was removed with a depilatory cream. After 24 h of raising, a silicone diffusion cell was fixed on the back, and Cy5-labeled ^Cy5BSA and ^Cy5BSA-OPDMA were added at equal amounts. 4 h after the administration, the dorsal skin of each mouse was carefully collected, rinsed 3 times with PBS, and sectioned by a freezing microtome to produce 20 μm-thick skin sections. A skin permeation effect of each solution was observed under a laser scanning confocal microscope.

[4] = tested on: laser-induced CNV model; assay: Laser-induced choroidal neovascularization (CNV) model, eye drops; type: in vivo, C57BL/6J mice; settings: eye drops 2 μL, 10 mg/ml of aflibercept, four times a day for 7 d, day 7
From the text: 40 female C57BL/6J mice at 6 to 8 weeks were selected, and the anterior segments of both eyes and the fundus were examined to be normal before the experiment. An unilateral eye of each mouse was selected and subjected to laser photocoagulation to establish a CNV model, where a corresponding contralateral eye was not treated. Then treated mice were randomly divided into a PBS group, an aflibercept-OPDMA conjugate group, an OPDMA+aflibercept mixture group, and an aflibercept intravitreal injection group. Immediately after the laser photocoagulation, mice in each group were administered with eye drops at a dose of (2 μL, 10 mg/ml of aflibercept) four times a day consecutively for 7 d. For the injection group, a dose was 10 μg/mouse, and the injection was conducted merely once during the experiment. After laser photocoagulation, on day 7 post-modeling, choroidal flat mounts were prepared from the experimental eyes. The flat mounts were subjected to antibody staining using IB4 and imaged under a fluorescence microscope. Thee neovascularization area was measured using image J software. These indices were used to assess the treatment efficacy of each group.

| Substance | intraocular permeation (fluorescence distribution in eyeballs and retinas) [1] | permeation in tumor spheres (fluorescence) [2] | skin permeation effect (fluorescence in skin sections) [3] | therapeutic effect on CNV (neovascularization area) [4] | therapeutic effect on CNV (neovascularization area) ([4]; listed as aflibercept-OPDMA conjugate) |
| --- | --- | --- | --- | --- | --- |
| ^Cy5BSA-OPDMA: Cy5-labeled conjugate of BSA with OPDMA; chain number and weight not stated in the text | could penetrate into intraocular cells, especially a retina in a posterior segment of an eye | presented a strong red fluorescence within tumor spheres | the fluorescence could penetrate into the deep skin |  |  |
| ^Cy5BSA: BSA fluorescently labeled with Cy5-NHS [reference compound] | only adhered to a surface of an eyeball | could only reach the edges of tumor spheres | faint red fluorescence was observed merely in a surface layer of the skin |  |  |
| aflibercept-OPDMA: conjugate of aflibercept with tertiary amine oxide polymer OPDMA | had a similar intraocular permeation ability |  |  | could indeed exert a therapeutic effect after being dropped to eyes | prominent therapeutic effect |
| aflibercept: the protein (aflibercept) itself |  |  | cannot permeate into the skin |  |  |

Reference: patent publication US20250325680A1, “HIGH-PERMEABILITY PROTEIN OR POLYPEPTIDE CONJUGATE AND USE THEREOF” (Hangzhou Tito Biotechnology Partnership Enterprise ( …, priority 2023, published 2025)
